Reference: patent US20230151091A1 (NEW YORK UNIVERSITY, published 2023)

T1: mouse MuSK, endogenous (C2C12 myotubes; neuromuscular synapses of mice) (mouse, UniProt Q61006 22-868)
T1 sequence (looked up): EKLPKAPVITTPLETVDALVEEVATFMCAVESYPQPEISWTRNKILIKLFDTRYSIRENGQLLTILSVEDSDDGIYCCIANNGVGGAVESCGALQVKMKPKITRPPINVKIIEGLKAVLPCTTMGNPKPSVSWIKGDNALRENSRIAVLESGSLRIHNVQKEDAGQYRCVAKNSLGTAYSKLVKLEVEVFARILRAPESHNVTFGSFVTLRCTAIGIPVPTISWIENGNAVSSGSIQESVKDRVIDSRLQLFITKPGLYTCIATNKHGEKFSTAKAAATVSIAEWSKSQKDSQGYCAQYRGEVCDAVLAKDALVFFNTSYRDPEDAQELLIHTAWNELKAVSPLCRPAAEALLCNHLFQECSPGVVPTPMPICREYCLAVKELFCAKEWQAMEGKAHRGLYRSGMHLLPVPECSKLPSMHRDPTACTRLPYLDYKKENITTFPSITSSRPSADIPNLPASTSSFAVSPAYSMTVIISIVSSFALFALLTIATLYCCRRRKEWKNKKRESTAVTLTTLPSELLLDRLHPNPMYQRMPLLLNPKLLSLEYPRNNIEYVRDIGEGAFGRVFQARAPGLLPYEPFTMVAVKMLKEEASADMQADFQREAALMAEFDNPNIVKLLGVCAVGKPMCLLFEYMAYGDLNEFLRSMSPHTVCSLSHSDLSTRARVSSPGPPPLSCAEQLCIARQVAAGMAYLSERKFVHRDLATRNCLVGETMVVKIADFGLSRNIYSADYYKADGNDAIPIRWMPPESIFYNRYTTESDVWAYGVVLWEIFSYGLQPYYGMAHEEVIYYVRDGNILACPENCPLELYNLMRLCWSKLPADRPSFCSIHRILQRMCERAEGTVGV

T2: mouse MuSK (mouse, UniProt Q61006 22-494, limits assumed)
T2 construct: Coated on ELISA plates or on the Biacore chip; also called full length mouse MuSK; mouse MuSK (in house produced in HEK293 cells)
T2 sequence (looked up): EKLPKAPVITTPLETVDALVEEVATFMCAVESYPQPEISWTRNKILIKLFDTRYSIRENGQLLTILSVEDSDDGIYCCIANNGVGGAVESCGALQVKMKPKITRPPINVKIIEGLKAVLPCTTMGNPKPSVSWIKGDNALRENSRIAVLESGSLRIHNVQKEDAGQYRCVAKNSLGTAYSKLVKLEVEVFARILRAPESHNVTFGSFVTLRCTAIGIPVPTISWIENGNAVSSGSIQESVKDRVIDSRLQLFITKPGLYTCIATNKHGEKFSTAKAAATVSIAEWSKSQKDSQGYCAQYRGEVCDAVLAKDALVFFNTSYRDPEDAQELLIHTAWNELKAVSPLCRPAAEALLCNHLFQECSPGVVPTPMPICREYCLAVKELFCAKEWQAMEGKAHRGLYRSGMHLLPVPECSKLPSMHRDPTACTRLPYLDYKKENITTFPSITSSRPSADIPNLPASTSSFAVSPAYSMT

T3: human MuSK (human, UniProt O15146 24-495)
T3 construct: Recombinant protein coated on ELISA plates (R&D Systems cat. 10189-MK) or on the Biacore chip; also called human muscle-specific tyrosine protein kinase; full length human MuSK
T3 sequence: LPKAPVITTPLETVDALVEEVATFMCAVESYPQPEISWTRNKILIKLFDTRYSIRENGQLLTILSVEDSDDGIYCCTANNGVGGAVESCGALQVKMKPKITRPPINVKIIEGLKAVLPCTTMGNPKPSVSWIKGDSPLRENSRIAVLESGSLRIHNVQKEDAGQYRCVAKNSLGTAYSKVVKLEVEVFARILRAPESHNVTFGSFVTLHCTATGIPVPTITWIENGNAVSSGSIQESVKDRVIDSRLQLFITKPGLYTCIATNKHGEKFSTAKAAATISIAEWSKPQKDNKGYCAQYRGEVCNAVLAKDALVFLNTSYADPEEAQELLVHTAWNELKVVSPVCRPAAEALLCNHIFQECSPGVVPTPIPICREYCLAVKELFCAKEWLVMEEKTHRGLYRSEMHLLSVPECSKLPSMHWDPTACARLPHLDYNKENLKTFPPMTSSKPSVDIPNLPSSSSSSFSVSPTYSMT

T4: mECD: full-length extracellular region of mouse MuSK (E22 to T494) with C-terminal Avi- and His6-tags (mouse, UniProt Q61006 22-494, biotinylated in vitro using the BirA enzyme)
T4 construct: range 22-494; also called mouse ECD; not shown: Avi- and His6-tags
T4 sequence (looked up): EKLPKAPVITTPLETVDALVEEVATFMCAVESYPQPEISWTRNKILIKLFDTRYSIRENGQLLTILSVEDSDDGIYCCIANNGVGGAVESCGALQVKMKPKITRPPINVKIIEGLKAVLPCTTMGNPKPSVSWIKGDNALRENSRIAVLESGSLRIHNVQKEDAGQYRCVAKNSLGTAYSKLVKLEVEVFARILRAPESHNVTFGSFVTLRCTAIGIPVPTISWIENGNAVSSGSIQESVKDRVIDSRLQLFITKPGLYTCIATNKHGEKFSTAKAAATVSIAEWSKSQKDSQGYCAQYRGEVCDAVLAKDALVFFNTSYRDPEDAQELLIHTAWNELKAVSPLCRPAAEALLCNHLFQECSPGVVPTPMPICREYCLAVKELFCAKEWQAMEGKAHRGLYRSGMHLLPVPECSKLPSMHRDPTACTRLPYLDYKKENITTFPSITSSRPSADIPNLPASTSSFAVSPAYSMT

T5: hECD: full-length extracellular region of human MuSK (E22 to T495) with C-terminal Avi- and His6-tags (human, UniProt O15146 22-495, biotinylated in vitro using the BirA enzyme)
T5 construct: also called human ECD; not shown: Avi- and His6-tags
T5 sequence: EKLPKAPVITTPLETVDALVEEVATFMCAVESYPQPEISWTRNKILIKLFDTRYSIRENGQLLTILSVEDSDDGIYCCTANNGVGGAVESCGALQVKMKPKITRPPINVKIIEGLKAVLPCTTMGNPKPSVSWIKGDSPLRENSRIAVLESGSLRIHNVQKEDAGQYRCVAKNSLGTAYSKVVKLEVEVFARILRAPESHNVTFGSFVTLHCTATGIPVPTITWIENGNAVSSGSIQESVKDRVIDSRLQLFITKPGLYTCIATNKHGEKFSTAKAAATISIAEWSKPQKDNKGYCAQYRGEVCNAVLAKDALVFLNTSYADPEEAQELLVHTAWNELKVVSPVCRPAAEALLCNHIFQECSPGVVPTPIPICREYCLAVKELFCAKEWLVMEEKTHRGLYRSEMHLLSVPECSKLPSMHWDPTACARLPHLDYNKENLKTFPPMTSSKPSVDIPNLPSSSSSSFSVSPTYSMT

T6: mFz: Fz domain and C-terminal flanking sequence of mouse MuSK (D307 to T494) with C-terminal Avi- and … (mouse, UniProt Q61006 307-494, limits assumed, biotinylated in vitro using the BirA enzyme)
T6 construct: also called mouse Fz; not shown: Avi- and His6-tags
T6 sequence (looked up): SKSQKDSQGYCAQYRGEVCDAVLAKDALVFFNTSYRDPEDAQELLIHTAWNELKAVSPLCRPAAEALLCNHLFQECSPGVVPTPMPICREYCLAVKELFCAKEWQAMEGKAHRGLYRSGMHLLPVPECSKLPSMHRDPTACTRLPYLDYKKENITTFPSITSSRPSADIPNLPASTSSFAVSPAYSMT

T7: hFz: Fz domain and C-terminal flanking sequence of human MuSK (K314-T495) with C-terminal Avi- and His6-tags (human, UniProt O15146 314-495, biotinylated in vitro using the BirA enzyme)
T7 construct: also called human Fz; not shown: Avi- and His6-tags
T7 sequence: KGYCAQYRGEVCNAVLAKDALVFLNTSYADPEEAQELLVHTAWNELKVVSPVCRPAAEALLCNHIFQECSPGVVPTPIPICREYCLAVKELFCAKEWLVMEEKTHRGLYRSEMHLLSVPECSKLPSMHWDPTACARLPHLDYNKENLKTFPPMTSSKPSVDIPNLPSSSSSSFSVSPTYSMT


Legend:
[1] = target: T1, mouse MuSK, endogenous (C2C12 myotubes; …); experiment: cell-based or functional assay
mouse MuSK [2] = target: T2, mouse MuSK; experiment: Biacore, mAb
From the text: (§1) For affinity determination, a CMS chip was coated with either human or mouse MuSK (200RU) and a dilution series of the antibodies (mAbs and Fabs) was applied in order to be able to calculate the affinity.

mouse MuSK [3] = target: T2, mouse MuSK; experiment: Biacore, MuSK on chip (200RU), mAb dilution series
From the text: as §1

human MuSK = target: T3, human MuSK; experiment: Biacore, MuSK on chip (200RU), mAb dilution series
From the text: as §1

[4] = target: T4, mECD: full-length extracellular region …; experiment: bead-binding assay, Fab format: biotinylated antigen on streptavidin beads, flow cytometry, 1:1 fit; average ± s.d., n=3
[5] = target: T5, hECD: full-length extracellular region …; experiment: as above
[6] = target: T6, mFz: Fz domain and C-terminal flanking …; experiment: as above
[7] = target: T7, hFz: Fz domain and C-terminal flanking …; experiment: as above
[8] = target: T4, mECD: full-length extracellular region …; experiment: bead-binding titration, Fab format: antigen immobilized on streptavidin beads, MFI by flow cytometry, curve is the 1:1 fit
[9] = target: T5, hECD: full-length extracellular region …; experiment: as above
[10] = target: T6, mFz: Fz domain and C-terminal flanking …; experiment: as above
[11] = target: T7, hFz: Fz domain and C-terminal flanking …; experiment: as above

Binder	% Phosphorylation Induced in C2C12 Mouse Assay, Assay 1 [1]	% Phosphorylation Induced in C2C12 Mouse Assay, Assay 2 [1]	% Phosphorylation Induced in C2C12 Mouse Assay, Assay 3 [1]	% Phosphorylation Induced in C2C12 Mouse Assay, Average [1]	fold difference in affinity, human versus mouse MuSK (mouse MuSK [2])	Kd (mouse MuSK [3])	Kd (human MuSK)	Kd [4]	Kd [5]	Kd [6]	Kd [7]	EC50 (read off the curve) [8]	EC50 (read off the curve) [9]	EC50 (read off the curve) [10]	EC50 (read off the curve) [11]
X13 Fab (Fab, V domains shown, also called Fab Clone X13) VH: EVQLVESGGGLVQPGGSLRLSCAASGFTISSSSIHWVRQAPGKGLEWVASISSSSGSTSYADSVKGRFTISADTSKNTAYLQMNSLRAEDTAVYYCARSSEHWYTIGYYGIDYWGQGTLVTVSS VL: DIQMTQSPSSLSASVGDRVTITCRASQSVSSAVAWYQQKPGKAPKLLIYSASSLYSGVPSRFSGSRSGTDFTLTISSLQPEDFATYYCQQSYGSFSLITFGQGTKVEIK								2.41 nM	2.39 nM	1.56 nM	1.7 nM	~2 nM	~2 nM	~2 nM	~2 nM
X6 Fab (Fab, V domains shown, also called Fab Clone X6) VH: EVQLVESGGGLVQPGGSLRLSCAASGFTFSSSSIHWVRQAPGKGLEWVASISSYSGYTYYADSVKGRFTISADTSKNTAYLQMNSLRAEDTAVYYCARTYGSYYVSSYTGMDYWGQGTLVTVSS VL: DIQMTQSPSSLSASVGDRVTITCRASQSVSSAVAWYQQKPGKAPKLLIYSASSLYSGVPSRFSGSRSGTDFTLTISSLQPEDFATYYCQQSSSSLITFGQGTKVEIK								0.59 nM	1.47 nM	0.42 nM	0.9 nM	~0.6 nM	~1 nM	~0.4 nM	~1 nM

More lines, now with the values ahead:

% Phosphorylation Induced in C2C12 Mouse Assay, Assay 1 [1]	% Phosphorylation Induced in C2C12 Mouse Assay, Assay 2 [1]	% Phosphorylation Induced in C2C12 Mouse Assay, Assay 3 [1]	% Phosphorylation Induced in C2C12 Mouse Assay, Average [1]	fold difference in affinity, human versus mouse MuSK (mouse MuSK [2])	Kd (mouse MuSK [3])	Kd (human MuSK)	Kd [4]	Kd [5]	Kd [6]	Kd [7]	EC50 (read off the curve) [8]	EC50 (read off the curve) [9]	EC50 (read off the curve) [10]	EC50 (read off the curve) [11]	Binder
66 % versus agrin	82 % versus agrin	50 % versus agrin	66 % versus agrin	10 fold	0.153 nM	0.011 nM									30E1 (antibody, V domains shown, human IgG1 with the LALA mutations (L234A, L235A); produced in HEK293 cells; also called 30E1 mAb) VH: QVQVQESGPGLVKPSQTLSLTCTVSGGSITARYYSWSWIRQPPGKGLEWMGVIAYDGSTYYSPSLKSRTSISRDTSKNQFSLHLSSVTPDDTAVYYCARGSSRVAAAFDSWGQGTQVTVSS VL: SYELTQSPSVSVALRRTAKITCGGDNIGSKNTQWYQQKPGQAPVLVIYADSRRPSGIPERFSGSNSGNTATLTISGAQAEDEADYYCHVWDSSTNAWFGGGTHLTVL
73 % versus agrin	89 % versus agrin	74 % versus agrin	79 % versus agrin	100 fold	0.11 nM	0.001 nM									30A11 (antibody, V domains shown, human IgG1 with the LALA mutations (L234A, L235A); produced in HEK293 cells; also called 30A11 mAb) VH: QVQVQESGPGLVKPSQTLSLTCTVSGGSITARYYSWSWIRQPPGKGLEWMGVIAYDGSTYYSPSLKSRTSISRDTSKNQFSLHLSSVTPDDTAVYYCARGSSRVAAAFDSWGQGTQVTVSS VL: SYELTQSPSVTVALRQTAKITCGGDNIASKNVQWYQQKPGQAPSLVIWADSRRPSGIPVRFSGSNFGNTATLTISGAQAEDEADYYCQVWDSSTNVAVFGGGTHLTVL
